These are literature values, as cited in article PMC3022782.

What is called Kd is the constant that tells how readily two partners part at equilibrium.

In the data set the target is β sliding clamp rim (Escherichia coli) (UniProt P0A988).
Sequence of UniProt P0A988 (P0A988 whole entry): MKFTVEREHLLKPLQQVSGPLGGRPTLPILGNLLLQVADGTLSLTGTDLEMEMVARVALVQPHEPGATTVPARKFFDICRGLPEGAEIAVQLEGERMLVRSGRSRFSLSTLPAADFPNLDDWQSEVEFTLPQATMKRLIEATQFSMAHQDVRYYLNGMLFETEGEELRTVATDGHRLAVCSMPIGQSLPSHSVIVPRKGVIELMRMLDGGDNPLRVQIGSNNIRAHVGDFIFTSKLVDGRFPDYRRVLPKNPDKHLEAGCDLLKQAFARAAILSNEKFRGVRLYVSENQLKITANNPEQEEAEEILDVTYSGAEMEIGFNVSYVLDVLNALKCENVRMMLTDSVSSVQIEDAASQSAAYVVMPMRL

On to Pol IV (from UniProt Q47155), for which the Kd is 1000 nM.
